In ChEMBL document CHEMBL2074389, “Isolation of a multispecific organic anion and cardiac glycoside transporter from rat brain” (Proc Natl Acad Sci U S A, 1997):

Assays:
Assay type in all cases: functional, cell-based, Oocyte
[1] = molecular target: T1, Solute carrier organic anion transporter family member 1A4 (Rattus norvegicus, UniProt O35913); assay: (§1) TP_TRANSPORTER: uptake in Xenopus laevis oocytes; conditions: oocyte
T1 sequence (O35913 whole entry): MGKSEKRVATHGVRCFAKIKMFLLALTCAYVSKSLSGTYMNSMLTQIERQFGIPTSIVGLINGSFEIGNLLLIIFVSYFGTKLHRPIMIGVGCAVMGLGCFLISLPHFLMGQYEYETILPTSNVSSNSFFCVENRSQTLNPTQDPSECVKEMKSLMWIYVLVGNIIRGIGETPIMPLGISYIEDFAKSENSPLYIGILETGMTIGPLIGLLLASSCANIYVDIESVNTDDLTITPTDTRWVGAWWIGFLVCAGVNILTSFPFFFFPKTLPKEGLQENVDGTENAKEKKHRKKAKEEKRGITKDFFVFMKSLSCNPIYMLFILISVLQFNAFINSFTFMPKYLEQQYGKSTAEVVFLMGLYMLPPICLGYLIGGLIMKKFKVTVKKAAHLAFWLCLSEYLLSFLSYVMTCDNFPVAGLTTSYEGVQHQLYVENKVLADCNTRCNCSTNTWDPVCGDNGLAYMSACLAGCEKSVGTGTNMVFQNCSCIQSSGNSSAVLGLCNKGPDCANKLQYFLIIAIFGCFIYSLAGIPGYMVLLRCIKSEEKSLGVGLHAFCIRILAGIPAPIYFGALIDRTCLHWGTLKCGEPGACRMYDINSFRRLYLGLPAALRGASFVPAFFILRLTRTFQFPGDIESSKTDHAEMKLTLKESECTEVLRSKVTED

[2] = molecular target: T2, Solute carrier organic anion transporter family member 1A4 (SLCO1A4, OATP1A4) (Rattus norvegicus, UniProt O35913); assay: as §1; conditions: Xenopus laevis oocytes expressing the transporter
T2 sequence (O35913 whole entry): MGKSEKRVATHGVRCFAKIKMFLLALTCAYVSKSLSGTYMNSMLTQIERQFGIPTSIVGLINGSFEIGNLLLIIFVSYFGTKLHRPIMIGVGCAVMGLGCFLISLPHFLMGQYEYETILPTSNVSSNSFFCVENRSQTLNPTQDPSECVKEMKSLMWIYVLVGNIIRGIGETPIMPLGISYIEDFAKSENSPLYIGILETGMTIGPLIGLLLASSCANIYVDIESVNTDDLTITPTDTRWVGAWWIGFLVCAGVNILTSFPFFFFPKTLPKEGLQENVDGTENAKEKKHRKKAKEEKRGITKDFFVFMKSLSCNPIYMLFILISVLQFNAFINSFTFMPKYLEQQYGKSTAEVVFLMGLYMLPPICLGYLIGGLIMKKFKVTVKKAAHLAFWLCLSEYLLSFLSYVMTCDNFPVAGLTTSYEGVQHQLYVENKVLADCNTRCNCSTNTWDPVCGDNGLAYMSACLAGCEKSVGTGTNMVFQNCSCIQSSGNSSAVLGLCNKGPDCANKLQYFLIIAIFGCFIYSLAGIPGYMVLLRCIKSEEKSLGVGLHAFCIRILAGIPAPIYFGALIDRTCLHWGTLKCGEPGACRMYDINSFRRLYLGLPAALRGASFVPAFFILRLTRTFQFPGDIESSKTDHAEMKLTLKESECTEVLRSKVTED

[3] = substrate: C[C@]12CC[C@@H]3c4ccc(O)cc4CC[C@H]3[C@@H]1CC[C@@H]2O[C@@H]1O[C@H](C(=O)O)[C@@H](O)[C@H](O)[C@H]1O; assay: as §1
[4] = substrate: C[C@H]1O[C@@H](O[C@H]2[C@@H](O)C[C@H](O[C@H]3[C@@H](O)C[C@H](O[C@H]4CC[C@@]5(C)[C@H](CC[C@@H]6[C@@H]5C[C@@H](O)[C@]5(C)[C@@H](C7=CC(=O)OC7)CC[C@]65O)C4)O[C@@H]3C)O[C@@H]2C)C[C@H](O)[C@@H]1O; assay: as §1
[5] = substrate: C[C@]12CC[C@@H]3c4ccc(OS(=O)(=O)O)cc4CC[C@H]3[C@@H]1CCC2=O; assay: as §1

CN(Cc1cnc2nc(N)nc(N)c2n1)c1ccc(C(=O)N[C@@H](CCC(=O)O)C(=O)O)cc1 [METHOTREXATE]
Activity [1]: is not a substrate [-]

C[C@@H]1O[C@@H](O[C@H]2C[C@@H](O)[C@]3(CO)[C@H]4[C@H](O)C[C@]5(C)[C@@H](C6=CC(=O)OC6)CC[C@]5(O)[C@@H]4CC[C@]3(O)C2)[C@H](O)[C@H](O)[C@H]1O [OUABAIN]
Km [2]: 470 µM

B1: Solute carrier organic anion transporter family member 1A4 (Rattus norvegicus) (protein)
chain: MGKSEKRVATHGVRCFAKIKMFLLALTCAYVSKSLSGTYMNSMLTQIERQFGIPTSIVGLINGSFEIGNLLLIIFVSYFGTKLHRPIMIGVGCAVMGLGCFLISLPHFLMGQYEYETILPTSNVSSNSFFCVENRSQTLNPTQDPSECVKEMKSLMWIYVLVGNIIRGIGETPIMPLGISYIEDFAKSENSPLYIGILETGMTIGPLIGLLLASSCANIYVDIESVNTDDLTITPTDTRWVGAWWIGFLVCAGVNILTSFPFFFFPKTLPKEGLQENVDGTENAKEKKHRKKAKEEKRGITKDFFVFMKSLSCNPIYMLFILISVLQFNAFINSFTFMPKYLEQQYGKSTAEVVFLMGLYMLPPICLGYLIGGLIMKKFKVTVKKAAHLAFWLCLSEYLLSFLSYVMTCDNFPVAGLTTSYEGVQHQLYVENKVLADCNTRCNCSTNTWDPVCGDNGLAYMSACLAGCEKSVGTGTNMVFQNCSCIQSSGNSSAVLGLCNKGPDCANKLQYFLIIAIFGCFIYSLAGIPGYMVLLRCIKSEEKSLGVGLHAFCIRILAGIPAPIYFGALIDRTCLHWGTLKCGEPGACRMYDINSFRRLYLGLPAALRGASFVPAFFILRLTRTFQFPGDIESSKTDHAEMKLTLKESECTEVLRSKVTED
Km [3]: 3 µM
Km [4]: 0.24 µM
Km [5]: 11 µM
